Results on 41 sequences are retold here after the nanobody polyreactivity screen of Harvey et al. (2022).

A short description of this series: yeast display, Sf9 membrane polyspecificity reagent, FACS + sequencing; frameworks hold sequencing errors. The essentials: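 Galactose-induced (36–48 hours) yeast carrying a synthetic nanobody display library were exposed to 10% biotinylated, detergent-solubilized Sf9 membrane reagent at 4 °C for 1 hour. FACS followed streptavidin microbead enrichment, using low and high (top ~1%) gates for expression (anti-HA) and reagent binding (streptavidin). Colony PCR, MiSeq 2 × 250 sequencing and CDR-length filtering followed. Labels for polyreactivity reflect the gate of origin.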
Consider “QVQLVESGGGLVQAGGSLRLSCAASGSIFEAYAMGWYRQAPGKEREVVAVISWRGGRTYYADSVKGRFTISRDNAKNTVYLQMNSLNPEDTAVYYCNKAYWWHQVGLPRNYEYWGQGTQVTVSS”, for which the “polyreactivity (PSR sort gate)” value is recorded as “low polyreactivity”. Consider “QVQLVESGGGLVQAGGSLRLSCAASGSIFEDYAMGWYRQAPGKERELVAAIDWGDGDTYYADSVKGRFTISRDNAKNTVYLQMNSLKPEDTAVYYCAADLVGYSGYYFDEEYYWGQGTQVTVSS”, for which the “polyreactivity (PSR sort gate)” value is “high polyreactivity”. In the case of “QVQLVESGGGLVQAGGSLRLSCAASGSIFEDYTMGWYRQAPGKERELVAAIDWSDASTFYADSVKGRFTISRDNAKNTVYLQMSLKPEDTAVYYCNVAIIFYDDDYWGQGTLVTVSS”, the “polyreactivity (PSR sort gate)” value is reported as “high polyreactivity”. For the sequence “QVQLVESGGGLVQAGGSLRLSCAASGSIFEGNAMGWDRQAPGKERELVASISGDGSTNYADSVKGRFTISRDNAKITVYLQMNCLKPEDTAVYYCAASFRWYGTVRYPYEMYYWGQGTQVTVSS”, the “polyreactivity (PSR sort gate)” value is listed as “low polyreactivity”.

As for “QVQLVESGGGLVQAGGSLRLSCAASGSIFEGNAMGWYREAPGKERELVASISGDGSTNYADSVKGRFTISRDNAKNTVYLQMNSLKPEDTAVYYCNADTISEPGFHMDYWGQGTQVTVSS”, the “polyreactivity (PSR sort gate)” value is “low polyreactivity”.

For the sequence “QVQLVESGGGLVQAGGSLRLSCAASGSIFEGNGMGWNRQEPGNVRELVAAITFRSGSTYYADSVKGRFTISRDNAKNSVYLQMNSLKPEDTAVYYCAADEYYQVSAYDYWGQGTQVTVSS”, the “polyreactivity (PSR sort gate)” value is on record as “low polyreactivity”. Take “QVQLVESGGGLVQAGGSLRLSCAASGSIFEGNGMGWYRQAPGQERELVAAITFRSGSTYYADSVKGRFTISRDNAKNTVYLQMNSLKPEDTAVYYCAADEYYQGYAYDYWGQGTPVTVSS”: the “polyreactivity (PSR sort gate)” value was “low polyreactivity”. Consider “QVQLVESGGGLVQAGGSLRLSCAASGSIFEGYVMGWYRQAPGKERELVATISFSGGSTYYADSVKGRFTISRDNAKNTVYLQMNSLKPEDTAVYYSAAAGVYYGVRGTTYAYDYWGQGTQVTVSS”, for which the “polyreactivity (PSR sort gate)” value is given as “low polyreactivity”. Then “QVQLVESGGGLVQAGGSLRLSCAASGSIFEHYAMGWYRQAPGKERELVATISSASRTNYADSVKGRFTISRDNAKNTVYLQMNSLKPEDTAVYYCAARFYYVWYGPYYYWGQGTQVTVSS”, with “high polyreactivity”; and “QVQLVESGGGLVQAGGSLRLSCAASGSIFEQYAMGGSRPAPGKERELVAAISKRGTSTYYADSVKGRFTISRDTPKNTVYLNMNSLKPEDTAVYYCAATNRWYYRAAADVYAFGYWGQGTQVTVSS”, with “high polyreactivity”.

As for “QVQLVESGGGLVQAGGSLRLSCAASGSIFERNAMGWYRQAPGKERELVAAISDDDGSTYYADSVKGRFTISRDNAKNTVYLQMNSLKPEDTAVYYCNAYSHFGSFYPFDYWGQGTQVTVSS”, the “polyreactivity (PSR sort gate)” value is “low polyreactivity”. Consider “QVQLVESGGGLVQAGGSLRLSCAASGSIFERYAMGWYRQAPGKERELVAAISWSGGRTYYADSVKGRFTISRDYAKNTFFLQMNSLNPEDTAVYYCARVVQPGSPIYDYWGQGTQVTVSS”, for which the “polyreactivity (PSR sort gate)” value was “high polyreactivity”. Regarding “QVQLVESGGGLVQAGGSLRLSCAASGSIFERYDMGWYRQAPGKERELVAAITSAGITYYADSVKGRFTISRDNAKNTVYLQMNSLKPEDTAVYYCAASYYYGYDYWGQGTQVTVSS”, the “polyreactivity (PSR sort gate)” value is “low polyreactivity”. For the sequence “QVQLVESGGGLVQAGGSLRLSCAASGSIFERYTMGWYRQAPGKERELVAAISRSGGRTYYADSVKGRFTISRDNAKNTVYLQMNSLKPEDTAVYYCARTRVASKGYDYWGQGTQVTVSS”, the “polyreactivity (PSR sort gate)” value was “high polyreactivity”.

With “QVQLVESGGGLVQAGGSLRLSCAASGSIFESYAMGWYRQAPGKERELVAAIDYSGGSTYYADSVKGRFTISRDNAKNSVYLQMNSLKREDTAVYYCAAGYRTYYGYRYGYWGQGTQVTVSS”, the “polyreactivity (PSR sort gate)” value is “high polyreactivity”. “QVQLVESGGGLVQAGGSLRLSCAASGSIFESYAMGWYRQAPGKERELVAAITKRGGSTYYADSVKGRFTISRDNAKNTVYLQMNSLKPEDTAVYYCNARWPGIGPIYDYWGQGTQVTVSS”: the “polyreactivity (PSR sort gate)” value is “low polyreactivity”.

Turning to “QVQLVESGGGLVQAGGSLRLSCAASGSIFESYVMGWYRQAPGKERELVAAISSGGSTYYADSVKGRFTISRDNAKNTVYLQMNSLKPEDTAVYYCAKRSHTYSVPGVYNEGDYWGQGTQVTVSS”, the “polyreactivity (PSR sort gate)” value is “low polyreactivity”. For “QVQLVESGGGLVQAGGSLRLSCAASGSIFEVNAMGLYRQAPGKERELVAAISCSGGSTYYADSVKGRFTISRDNAKNTVYLQMNSLKPEDTAVYYCAADWRQGLWYGYYYWGQGTQVTVSS”, the “polyreactivity (PSR sort gate)” value is “low polyreactivity”.

With “QVQLVESGGGLVQAGGSLRLSCAASGSIFEWYAMGWYRQAPGKDRELVADITYNGGSTYYADSVKGRFTISRDNAKNTVYLQMNSLKPEDTAVYYCAADYFVQVPDYYYASEYGYWGQGTQGTVSS”, the “polyreactivity (PSR sort gate)” value is “low polyreactivity”. With “QVQLVESGGGLVQAGGSLRLSCAASGSIFEYNDMGSYRQAPGKERELVAAITTGGRTSYADSVKGRFTISRDNAKYTVYLQMNSLKPEDTAVYYCNKDHSSYGASGYDYWGQGTQVTVSS”, the “polyreactivity (PSR sort gate)” value is recorded as “low polyreactivity”.

Regarding “QVQLVESGGGLVQAGGSLRLSCAASGSIFEYNDMGWYRQAPGKERELVAAISWNGGSTYYADSVKGRFTISRDNAKNTVYLPMNSLKPEETAVYYCNTRYSPGYQGTEVDYWGQGTQVTVSS”, the “polyreactivity (PSR sort gate)” value is on record as “low polyreactivity”. In the case of “QVQLVESGGGLVQAGGSLRLSCAASGSIFFGNAMGWYRQAPGKERELVAAISTTGGSTYYADSVKGRFTISRDNAKNTVYLQMNSLKPEDTAVYYCNADRATWWEQWWYDYWGQGTLVTVSS”, the “polyreactivity (PSR sort gate)” value is “low polyreactivity”. “QVQLVESGGGLVQAGGSLRLSCAASGSIFFGNAMGWYRQATGKERELVAAITRRGGSTYYADSVKGRFTISRDNAKNTVYLQMNSLKPEDTAVYYCNAVSKRYGYGYWGQGTQVTVSS”: the “polyreactivity (PSR sort gate)” value was “high polyreactivity”. Then “QVQLVESGGGLVQAGGSLRLSCAASGSIFFGYAMGSYRQAPGKERELVAAISTRGGSTYYADSVKGRFTISRDNAKNTFYLQMNSLKPEDTAVYYSAADYLDSTYGYVYGWDDYWGQGTQVTVSS”, with “low polyreactivity”; and “QVQLVESGGGLVQAGGSLRLSCAASGSIFFGYAMGWYRQAPGKERELVAAISTRGGRTYYADSVKGRFTISRDNAKNTVYLQMNSLKPEDTAVYYCAAFQAHQTAFDYWGQGTQVTVSS”, with “high polyreactivity”; and “QVQLVESGGGLVQAGGSLRLSCAASGSIFFKYTMGWYRQAPGKEREFVAAISYSGGRTYYADSVKGRFTISRDNAKNTVYLQMNSLKPEDTSVYYCATRDEITHGDRMDYWGQGTQVTVSS”, with “low polyreactivity”.

With “QVQLVESGGGLVQAGGSLRLSCAASGSIFFLYAMGWYRQATGKEREFVAAITGTADSTYYADSVKGRFTISRDDAKNTVYLQMNSLNPEDTAVYYCATDYWSSVKLDDYWGQGTQVTVSS”, the “polyreactivity (PSR sort gate)” value is given as “low polyreactivity”. On to “QVQLVESGGGLVQAGGSLRLSCAASGSIFFPNAMGWYRQAPGKERELVAAISWSGDSTYADSVKGRFTISRDNAKNTVYLQMNSLKPEETAVYSCAAVYLWWSYEFDYWGQGTHVTVSS”, for which the “polyreactivity (PSR sort gate)” value is “low polyreactivity”. As for “QVQLVESGGGLVQAGGSLRLSCAASGSIFFPYAMGWYRQAPGKERELVAAISQSAGSTFYADSVKGRFTISRDNAKHTVYLQKNSLKPEDTAVYYCAKSGDADFYYTYYYWGQGTQVTVSS”, the “polyreactivity (PSR sort gate)” value is on record as “low polyreactivity”. As to “QVQLVESGGGLVQAGGSLRLSCAASGSIFFPYAMGWYRQATGKERELVASINSGGITTYADSVKGRFTISRDNAKNTVYLQMNSLKPEDTAVYYCARYVSYRWVRYNYWGQGTQVTVSS”, the “polyreactivity (PSR sort gate)” value is given as “high polyreactivity”. Take “QVQLVESGGGLVQAGGSLRLSCAASGSIFFPYLMGWYRQAPGKERELVAAITYRAGSTYYADSVKGRFTISRDNAKNTVYLQMNSLKPEDTAVYYCAAVVSRSGEFGYWGQGTQVTVSS”: the “polyreactivity (PSR sort gate)” value was “low polyreactivity”. “QVQLVESGGGLVQAGGSLRLSCAASGSIFFRYTMGWSRQAPGTERELVAAITGSGGSTYYADSVKGRFTISRDNAKNTVYLQMNSLKTEDTAVYYCARPGWGRYEYWGQGTQVTVSS”: the “polyreactivity (PSR sort gate)” value is listed as “high polyreactivity”. Consider “QVQLVESGGGLVQAGGSLRLSCAASGSIFFSNAMGWYRQAPGKERELVAAITSSGASTYYADSVKGRFTISRDNAKNTVYLQMNSLKPEDTAVYYCAVVGRGKRYGYWGQGTQVTVSS”, for which the “polyreactivity (PSR sort gate)” value is listed as “high polyreactivity”. Then “QVQLVESGGGLVQAGGSLRLSCAASGSIFFSNAMGWYRQAPGKERELVAVITYSGGGTYYADSVKGRFTISRDNAKNTVYLQMNSLKPEDTAVYYCNTDLGPDGISWHWYAYDYWGQGTQVTVSS”, with “low polyreactivity”; and “QVQLVESGGGLVQAGGSLRLSCAASGSIFFSYAMGWYIQAPGKERELVAAITSSVDSTYYADSVKGRFTISRDNAKNTVYLQMNSLKPEDTAVYYCAARYRSGYYRYDYWGQGTQVTVSS”, with “low polyreactivity”. For the sequence “QVQLVESGGGLVQAGGSLRLSCAASGSIFFSYAMGWYRQAPGKERELVAAIDYSGGGTYYADSVKGRFTISRDNAKNTVYLQMNSLKPEDTAVYYCNSDTEVWAVTFISYRALNYWGQGTQVTVSS”, the “polyreactivity (PSR sort gate)” value was “low polyreactivity”.

Consider “QVQLVESGGGLVQAGGSLRLSCAASGSIFFSYAMGWYRQAPGKERELVASISSGVSTNYADSEKGRFTISRDNAKNTVYLQMNSLKPEDTAVYYFAAYYRGWSSSYWYPAYNYWGQGTQVTVSS”, for which the “polyreactivity (PSR sort gate)” value is given as “low polyreactivity”. For “QVQLVESGGGLVQAGGSLRLSCAASGSIFFVNAMGWYRQAPGKERELVAGITGGGSTYYADSVKGRFTISRDNAKNTVYLQMNSLKPEDTAVYYCNKKAYRKTGMDYWGQGTQVTVSS”, the “polyreactivity (PSR sort gate)” value is listed as “low polyreactivity”. As for “QVQLVESGGGLVQAGGSLRLSCAASGSIFFYNTMGWYRQAPGKERELVAAISASGGRTYYADSVKGRFTISRDNAKNTVYLQMNSLKPEDTAVYYCAVRVPYRGYTRYDYWGQGTQVTVSS”, the “polyreactivity (PSR sort gate)” value was “high polyreactivity”. As for “QVQLVESGGGLVQAGGSLRLSCAASGSIFFYYAMGWYRQAPGKERELVAAIRSGTSTNYADSVKGRFTISRDNAKNTVYLQMNSLKPEDTAVYYCAARFPGGGYGMDYWGQGTKVTVSS”, the “polyreactivity (PSR sort gate)” value is reported as “low polyreactivity”. On to “QVQLVESGGGLVQAGGSLRLSCAASGSIFFYYAMGWYRQAPGKERELVAAITKIGVGTFYADSVKGRFTISRDNAKNTVYLQMNSLKPEDTAVYYCNARTAWEGYDYWGQGTQVTVSS”, for which the “polyreactivity (PSR sort gate)” value is on record as “low polyreactivity”.
